According to publication PMC4653032:

Tests used:
Settings in all cases: glycan lost; control: wild-type CD133
[1] = anti-CD133 western blot, HEK293T lysates
[2] = FLAG IP, PY828 blot, HEK293T with Src
[3] = surface flow cytometry, HEK293T and HepG2
[4] = immunofluorescence with ER dye, HEK293T

B1: CD133 (prominin-1): N548Q (protein)
parent chain: MALVLGSLLLLGLCGNSFSGGQPSSTDAPKAWNYELPATNYETQDSHKAGPIGILFELVHIFLYVVQPRDFPEDTLRKFLQKAYESKIDYDKPETVILGLKIVYYEAGIILCCVLGLLFIILMPLVGYFFCMCRCCNKCGGEMHQRQKENGPFLRKCFAISLLVICIIISIGIFYGFVANHQVRTRIKRSRKLADSNFKDLRTLLNETPEQIKYILAQYNTTKDKAFTDLNSINSVLGGGILDRLRPNIIPVLDEIKSMATAIKETKEALENMNSTLKSLHQQSTQLSSSLTSVKTSLRSSLNDPLCLVHPSSETCNSIRLSLSQLNSNPELRQLPPVDAELDNVNNVLRTDLDGLVQQGYQSLNDIPDRVQRQTTTVVAGIKRVLNSIGSDIDNVTQRLPIQDILSAFSVYVNNTESYIHRNLPTLEEYDSYWWLGGLVICSLLTLIVIFYYLGLLCGVCGYDRHATPTTRGCVSNTGGVFLMVGVGLSFLFCWILMIIVVLTFVFGANVEKLICEPYTSKELFRVLDTPYLLNEDWEYYLSGKLFNKSKMKLTFEQVYSDCKKNRGTYGTLHLQNSFNISEHLNINEHTGSISSELESLKVNLNIFLLGAAGRKNLQDFAACGIDRMNYDSYLAQTGKSPAGVNLLSFAYDLEAKANSLPPGNLRNSLKRDAQTIKTIHQQRVLPIEQSLSTLYQSVKILQRTGNGLLERVTRILASLDFAQNFITNNTSSVIIEETKKYGRTIIGYFEHYLQWIEFSISEKVASCKPVATALDTAVDVFLCSYIIDPLNLFWFGIGKATVFLLPALIFAVKLAKYYRRMDSEDVYDDVETIPMKNMENGNNGYHKDHVYGIHNPVMTSPSQH
no change: expression_or_secretion [1] | other: Y828 phosphorylation [2] | localisation_or_trafficking [3] | localisation_or_trafficking [4]

B2: CD133 (prominin-1): N729Q (protein)
parent chain: MALVLGSLLLLGLCGNSFSGGQPSSTDAPKAWNYELPATNYETQDSHKAGPIGILFELVHIFLYVVQPRDFPEDTLRKFLQKAYESKIDYDKPETVILGLKIVYYEAGIILCCVLGLLFIILMPLVGYFFCMCRCCNKCGGEMHQRQKENGPFLRKCFAISLLVICIIISIGIFYGFVANHQVRTRIKRSRKLADSNFKDLRTLLNETPEQIKYILAQYNTTKDKAFTDLNSINSVLGGGILDRLRPNIIPVLDEIKSMATAIKETKEALENMNSTLKSLHQQSTQLSSSLTSVKTSLRSSLNDPLCLVHPSSETCNSIRLSLSQLNSNPELRQLPPVDAELDNVNNVLRTDLDGLVQQGYQSLNDIPDRVQRQTTTVVAGIKRVLNSIGSDIDNVTQRLPIQDILSAFSVYVNNTESYIHRNLPTLEEYDSYWWLGGLVICSLLTLIVIFYYLGLLCGVCGYDRHATPTTRGCVSNTGGVFLMVGVGLSFLFCWILMIIVVLTFVFGANVEKLICEPYTSKELFRVLDTPYLLNEDWEYYLSGKLFNKSKMKLTFEQVYSDCKKNRGTYGTLHLQNSFNISEHLNINEHTGSISSELESLKVNLNIFLLGAAGRKNLQDFAACGIDRMNYDSYLAQTGKSPAGVNLLSFAYDLEAKANSLPPGNLRNSLKRDAQTIKTIHQQRVLPIEQSLSTLYQSVKILQRTGNGLLERVTRILASLDFAQNFITNNTSSVIIEETKKYGRTIIGYFEHYLQWIEFSISEKVASCKPVATALDTAVDVFLCSYIIDPLNLFWFGIGKATVFLLPALIFAVKLAKYYRRMDSEDVYDDVETIPMKNMENGNNGYHKDHVYGIHNPVMTSPSQH
no change: expression_or_secretion [1] | localisation_or_trafficking [3] | localisation_or_trafficking [4]

B3: CD133 (prominin-1): N730Q (protein)
parent chain: MALVLGSLLLLGLCGNSFSGGQPSSTDAPKAWNYELPATNYETQDSHKAGPIGILFELVHIFLYVVQPRDFPEDTLRKFLQKAYESKIDYDKPETVILGLKIVYYEAGIILCCVLGLLFIILMPLVGYFFCMCRCCNKCGGEMHQRQKENGPFLRKCFAISLLVICIIISIGIFYGFVANHQVRTRIKRSRKLADSNFKDLRTLLNETPEQIKYILAQYNTTKDKAFTDLNSINSVLGGGILDRLRPNIIPVLDEIKSMATAIKETKEALENMNSTLKSLHQQSTQLSSSLTSVKTSLRSSLNDPLCLVHPSSETCNSIRLSLSQLNSNPELRQLPPVDAELDNVNNVLRTDLDGLVQQGYQSLNDIPDRVQRQTTTVVAGIKRVLNSIGSDIDNVTQRLPIQDILSAFSVYVNNTESYIHRNLPTLEEYDSYWWLGGLVICSLLTLIVIFYYLGLLCGVCGYDRHATPTTRGCVSNTGGVFLMVGVGLSFLFCWILMIIVVLTFVFGANVEKLICEPYTSKELFRVLDTPYLLNEDWEYYLSGKLFNKSKMKLTFEQVYSDCKKNRGTYGTLHLQNSFNISEHLNINEHTGSISSELESLKVNLNIFLLGAAGRKNLQDFAACGIDRMNYDSYLAQTGKSPAGVNLLSFAYDLEAKANSLPPGNLRNSLKRDAQTIKTIHQQRVLPIEQSLSTLYQSVKILQRTGNGLLERVTRILASLDFAQNFITNNTSSVIIEETKKYGRTIIGYFEHYLQWIEFSISEKVASCKPVATALDTAVDVFLCSYIIDPLNLFWFGIGKATVFLLPALIFAVKLAKYYRRMDSEDVYDDVETIPMKNMENGNNGYHKDHVYGIHNPVMTSPSQH
no change: expression_or_secretion [1] | localisation_or_trafficking [3] | localisation_or_trafficking [4]
